Reference: PMC314469, “Protein Interaction Networks by Proteome Peptide Scanning” (PLoS Biology, 2004)

T1: amphyphisin SH3 (AMPH_HUMAN), P49418
T1 chain: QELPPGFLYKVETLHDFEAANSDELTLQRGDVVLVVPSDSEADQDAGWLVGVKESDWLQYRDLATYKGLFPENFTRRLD


Legend:
[1] = molecular target: T1, amphyphisin SH3 (AMPH_HUMAN), P49418; test: SPOT array
[2] = molecular target: endophilin SH3 (SH3G2_HUMAN), Q99962; test: SPOT array

Row | normalised SPOT signal, Boehringer light units (BLU); mean over the file's lines of this peptide [1] | normalised SPOT signal, Boehringer light units (BLU); mean over the file's lines of this peptide [2] | Binder
1 | 8910 | 14600 | QVIRPPRPPKVLGL [P39193 571-585]
2 | 20.7 | 61.3 | ATFSLRRPWTEAGA [P20800 107-120]
3 | 80.1 | 72.5 | RAASLRRPRRAASR [Q8WYB4 11-24]
4 | 66.4 | 82.5 | QVIGPHRPPELHDR [P20813 329-343]
5 | 92.2 | 326 | QVDPPERPPSPPSD [Q9H4B3 193-207]
6 | 62.4 | 30.3 | QQPGPAKPPTQQVG [Q9Y6V0 366-380]
7 | 744 | 430 | QQPPPRRPPQAPEG [Q9UPY6 301-315]
8 | 1150 | 2710 | QVFLPPRPPKVLGL [Q9Y3F0 251-265]
9 | 117 | 423 | QVIHPPRPPKVLGL [P39194 572-585]
10 | 56.1 | 208 | QSISLRRPRLASQS [Q9UBH6 665-678]
11 | 64.1 | 29.5 | QRSHFKRPRELEDA [P33897 430-443]
12 | 60.7 | 43.1 | QVVGPHRPPALDDR [Q14097 329-343]
13 | 4340 | 11000 | RAPPPSRPPPRPSV [Q9H6X2 550-564]
14 | 48.7 | 66.3 | RASSPKRPGPWSEP [P08922 650-663]
15 | 6.6 | 28.4 | QVYVLKRPYVDEFL [O14595 137-150]
16 | 42.5 | 0 | QVNHLKRPVSGVGD [Q92610 1091-1104]
17 | 136 | 3950 | AASSPARPPGLQRS [Q9BQ89 173-187]
18 | 1620 | 240 | QVMVIKRPGRKRKA [P51608 244-257]
19 | 708 | 33.9 | RAITFRRPSRVHYY [Q96RS3 192-205]
20 | 36.8 | 106 | QQPLPRRPGHDDGQ [Q16360 104-117]
21 | 68.1 | 46.8 | ATDLPKKPPPPEVT [Q96QH2 123-137]

Row | normalised SPOT signal, Boehringer light units (BLU); mean over the file's lines of this peptide [1] | normalised SPOT signal, Boehringer light units (BLU); mean over the file's lines of this peptide [2] | Binder
22 | 8090 | 2440 | RAEVPTKPPLPPAR [Q9UKM7 224-238]
23 | 3010 | 2120 | QYGFPRRPPPRGSQ [Q9BQH3 166-180]
24 | 49.9 | 4000 | QSSPPQRPPAPASP [BAC05814 18-32]
25 | 1220 | 764 | QYNFLRRPQRMPVS [Q9BZC7 2011-2024]
26 | 43.2 | 275 | QVDPPERPPPPPSD [Q9H292 194-208]
27 | 6640 | 2140 | RAPSPARPRRPHAS [Q9H8S7 104-117]
28 | 534 | 123 | QVKDIRRPERRHSD [Q9UI45 1886-1899]
29 | 37.5 | 93.1 | QSLKIRRPHDYQPL [P26368 222-235]
30 | 40.3 | 64.7 | QVEKLRRPEGASNE [O75381 360-373]
31 | 936 | 5000 | QVILPPRPPKVLGL [P39188 470-484]
32 | 47.6 | 1460 | RADIPKRPSYVAPL [Q9Y2F3 1400-1413]
33 | 11300 | 472 | ATDSPRRPSRSTGG [Q9H6U6 6-19]
34 | 5530 | 147 | ATDAPSRPGRLAGR [Q9H6H6 405-418]
35 | 8800 | 11000 | QRQRPPRPPPRGTP [Q8WTU5 20-34]
36 | 219 | 2140 | RAPRPTRPDKARRL [P39030 37-50]
37 | 220 | 764 | QYRSLPRPAKSSSM [Q9H9S9 177-190]
38 | 180 | 80.9 | RAQRIRRPFRPILN [Q9NR60 64-77]
39 | 35.1 | 94.2 | QSTNPKRPLSSANQ [P35670 228-241]
40 | 19.5 | 58.8 | QVYVLKRPHVDEFL [O15194 206-219]
41 | 3270 | 106 | QQQLLQRPPRDAQQ [O15350 392-405]
42 | 25.3 | 57.6 | QRKNLRRPPSIKGW [Q9NYL5 22-35]
